The values below come from US20220073608A1 (JIANGSU HUAIYU PHARMACEUTICAL, published 2022).

For assay [1], the target named is T1, mouse SEMA4D, full length, on CHO-K1 cells (CHO-K1 mSEMA4D) (mouse, UniProt O09126 24-861).
T1 construct: whole, on cells; also called murine SEMA4D recombinant cells
T1 sequence (looked up): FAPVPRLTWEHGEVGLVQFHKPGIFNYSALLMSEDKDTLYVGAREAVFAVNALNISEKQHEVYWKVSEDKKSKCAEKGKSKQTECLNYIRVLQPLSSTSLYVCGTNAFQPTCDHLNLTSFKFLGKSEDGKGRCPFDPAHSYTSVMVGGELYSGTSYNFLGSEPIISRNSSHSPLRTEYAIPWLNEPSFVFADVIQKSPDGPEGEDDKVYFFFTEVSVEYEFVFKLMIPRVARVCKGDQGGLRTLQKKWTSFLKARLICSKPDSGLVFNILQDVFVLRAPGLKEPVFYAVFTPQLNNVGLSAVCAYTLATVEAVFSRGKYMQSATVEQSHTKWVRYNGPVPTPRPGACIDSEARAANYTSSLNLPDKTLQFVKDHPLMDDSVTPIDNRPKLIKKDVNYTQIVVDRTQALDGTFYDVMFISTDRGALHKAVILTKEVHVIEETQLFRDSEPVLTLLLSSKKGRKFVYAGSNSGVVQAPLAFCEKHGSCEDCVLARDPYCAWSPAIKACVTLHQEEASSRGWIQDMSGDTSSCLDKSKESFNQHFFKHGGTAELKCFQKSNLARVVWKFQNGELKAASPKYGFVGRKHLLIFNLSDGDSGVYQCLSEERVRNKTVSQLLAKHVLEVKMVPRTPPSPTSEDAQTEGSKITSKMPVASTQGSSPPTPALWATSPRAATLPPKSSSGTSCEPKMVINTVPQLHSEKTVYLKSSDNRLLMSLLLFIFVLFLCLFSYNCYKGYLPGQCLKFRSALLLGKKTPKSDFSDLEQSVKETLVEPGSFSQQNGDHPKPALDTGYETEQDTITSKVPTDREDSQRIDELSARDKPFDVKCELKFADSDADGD
The experiment in a line: FACS, CHO-K1 mSEMA4D cells; Ab 66.7 nM. As for the experimental part:
(§1) After the cells were counted, they were diluted with PBS to 2×10⁶ cells per milliliter. After washing, 100 μL of diluted and purified leading antibodies was added to each well and the plate was incubated for 1 hour on ice. […] Cells were washed 2 times by centrifugation with FACS buffer. The cells were suspended with 200 μL of FACS buffer, FACS (FACS Verse, purchased from BD) was used to detect and analyze the results.

Assay [2] has as its target T1, mouse SEMA4D, full length, on CHO-K1 …. As to the kind of experiment: FACS, CHO-K1 mSEMA4D cells; Ab 0.534 nM. As for the experimental part: as §1
For assay [3] the target is unchanged. As to the kind of experiment: FACS, CHO-K1 mSEMA4D cells; Ab 0.000853 nM. As for the experimental part:
as §1

Assay [4] addresses T2, hSEMA4D ECD-His (His-tagged human SEMA4D protein extracellular domain, Met22-Arg734) (human, UniProt Q92854 22-734).
T2 construct: Expressed in CHO-S cells, purified on Ni column; also called protein immunogen; immunogen A; not shown: His tag of the pCP vector
T2 sequence: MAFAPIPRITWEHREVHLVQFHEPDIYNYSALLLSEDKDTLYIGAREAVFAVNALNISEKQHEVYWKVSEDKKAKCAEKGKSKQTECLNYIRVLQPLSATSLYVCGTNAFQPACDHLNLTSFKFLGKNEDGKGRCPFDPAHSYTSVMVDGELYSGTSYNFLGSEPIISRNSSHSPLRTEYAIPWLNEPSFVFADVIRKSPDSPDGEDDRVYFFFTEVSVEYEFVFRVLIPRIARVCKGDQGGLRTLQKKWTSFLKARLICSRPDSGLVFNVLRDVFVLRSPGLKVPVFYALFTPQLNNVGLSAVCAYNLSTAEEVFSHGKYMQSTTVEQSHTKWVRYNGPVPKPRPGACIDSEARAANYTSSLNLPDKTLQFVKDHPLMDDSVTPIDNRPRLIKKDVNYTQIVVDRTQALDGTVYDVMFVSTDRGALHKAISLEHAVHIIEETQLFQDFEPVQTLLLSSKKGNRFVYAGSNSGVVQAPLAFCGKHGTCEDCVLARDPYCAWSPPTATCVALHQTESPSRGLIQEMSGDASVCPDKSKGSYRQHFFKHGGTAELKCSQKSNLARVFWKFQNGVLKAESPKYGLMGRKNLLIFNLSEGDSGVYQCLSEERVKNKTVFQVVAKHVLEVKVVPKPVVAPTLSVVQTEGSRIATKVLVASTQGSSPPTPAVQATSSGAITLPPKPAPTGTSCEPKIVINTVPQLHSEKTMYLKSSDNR
The experiment in a line: ELISA, coated hSEMA4D ECD-His; Ab 0.00427 nM. The method, then: First, hSEMA4D ECD-His was diluted with PBS to a final concentration of 1.0 μg/mL, and then was added to a 96-well ELISA plate, 100 μL per well, sealed with plastic film and incubated overnight at 4° C. On the next day, the plate was washed with a plate washing solution, that is, PBS buffer containing 0.05% (v/v) Tween20, for 4 times, and added with blocking solution, that is, PBS buffer containing 0.05% (v/v) Tween20 and 2% (w/w) BSA, blocked at 37° C. for 1 hour. The blocking solution was poured out and the plate was washed 4 times with the plate washing solution. 100 μL of the purified leading antibodies obtained in Examples 1 and 2 was added to each well. After incubation at 37° C. for 1 hour, the plate was washed 4 times with a plate washing solution. 100 μL of horseradish peroxidase (HRP) labeled secondary antibody (purchased from Sigma) was added at a dilution of 1:10000 to each well, and the plate was incubated at 37° C. for 1 hour, and washed 4 times with a plate washing solution. 100 μL TMB substrate was added to each well, and the plate was incubated at room temperature for 5 minutes, and added with 100 μL stop solution (1.0N HCl) to each well. A microplate reader (SpectraMax M5e, purchased from Molecular Device) was used to read the A450 nm value. […] Wherein, the data in the table was the OD450 nm value.

Assay [5] has as its target T1, mouse SEMA4D, full length, on CHO-K1 …. As to the kind of experiment: FACS, CHO-K1 mSEMA4D cells; Ab 2.67 nM. The method, then:
as §1

Assay [6] has the same target. The experiment in a line: FACS, CHO-K1 mSEMA4D cells; Ab 13.3 nM. The method, then: as §1

B1: 42B7G2 (antibody, V domains shown)
VH: QVQLQQSGAELARPGASVKLSCKASGYTFTDYGISWVKQRTGQGLEWIGEIYLRNDNSYYNEKFKGKATLTADKSSNTAYMELRSLTSEDSAVYFCARWGDHGNNYEDAMDYWGQGTSVTVSS
VL: DIVLTQSPASLAMSLGKRATISCRASESVSIIGSNLIHWYQQKPGQPPKLLIYHASNLETGVPARFSGSGSRTDFTLTIDPVEEDDVAIYYCLQSRKVPYTFGGGTKLEIK
notes: Mouse monoclonal antibody purified from hybridoma supernatant on protein A
Take B1: the MFI in assay [1] came to 35.3; in assay [2], 31.7; in assay [3] it was 31.1; in assay [5], 31; in assay [6], 30.7. Also, the OD450 nm in assay [4] stood at 0.0851.

B2: 32C8F10 (antibody, V domains shown)
VH: EVQLQQSGAELVRPGASVKLSCTASGFNIKDEYIHWVKQRPEQGLEWIGWIDPANGHTEYASRFQAKATITADTSSNTAYLQLSSLTSEDTAVYYCTTGDYDGFAYWGQGTLVTVST
VL: QIVLTQSPAIMSASPGEKVTISCSARSSVSYMYWYQQKPGSSPKPWIYRTSNLASGVPARFSGSGSGTSYSLTISSMEAEDAATYYCQHYHTYPYTFGGGTKLEIK
notes: as for B1
With B2, the MFI in assay [1] is 31.7; in assay [2], 29.8; in assay [3], 30.4; in assay [5] it was 30.7; in assay [6] it was 30.6. Further, in assay [4], the OD450 nm amounted to 0.0685.

B3: 31C11G2 (antibody, V domains shown)
VH: EVQLQQSGAELVRPGASVKLSCTASGFNIKDEYIHWVKQRPEQGLEWIGWIDPANGHTEYASRFQAKATITADTSSNTAYLQLSSLTSEDTAVYYCTTGDYDGFVYWGQGTLVTVST
VL: QIVLTQSPAIMSASPGEKVTIFCSARSSVSYMYWYQQKPGSSPKPWIYRTSNLASGVPARFSGSGSGTSYSLTISSMEAEDAATYYCQHYHTYPYTFGGGTKLEIK
notes: as for B1
As to B3, the MFI was found to be 31.4 in assay [1]; 30.7 in assay [2]; 30.9 in assay [3]; 30.5 in assay [5]; 31.3 in assay [6]. The OD450 nm in assay [4] worked out at 0.0939.

B4: 31G10C5 (antibody, V domains shown)
VH: EVQLQQSGAELVRPGASVKLSCTASGFNIKDDYIHWVKQRPEQGLEWIGWIDPANGHIEYASNFQAKATITADTSSNTAYLQLSSLTSEDTAVYYCTTGDYDGFTYWGQGTLVTVST
VL: QIVLTQSPAIMSASPGEKVTISCSARSSVSYMYWYQQKPGSSPKPWIYRTSNLASGVPARFSGSGSGTSYSLTISSMEAEDAATYYCQHYHTYPYTFGGGTKLEIK
notes: as for B1
In the case of B4, the MFI is 32.4 in assay [1]; 30.3 in assay [2]; 30.1 in assay [3]; 30.1 in assay [5]; 30.9 in assay [6]. Besides, the OD450 nm in assay [4] is 0.0915.

B5: 37C4F7 (antibody, V domains shown)
VH: EFQLQQSGPEVVKPGASVKISCKASGYSFTDYNMNWMKQSKGKSLEWIGVINPNYGTTTYNQNFKGKATLTVDQSSSTAYMQLNSLTSEDSAVYYCARDMYYVYAYYTMDYWGQGTSVTVSS
VL: DVVMTQTPLSLPVSLGDQASISCRSSQSLVHSNGHTYLHWYLQRPGQSPTLLIYKVSNRFSGVPDRFSGSGSGTDFTLKISRVEAEDLGVYFCSQGTHVPWTFGGGTKLEIK
notes: as for B1
For B5, the MFI in assay [1] was found to be 30; in assay [2], 29.2; in assay [3], 30.2; in assay [5] it was 30; in assay [6], 29.8. For the same molecule, the OD450 nm in assay [4] is 0.0623.

B6: 38H2E3 (antibody, V domains shown)
VH: EFQLQQSGPEVVKPGASVKISCKASGYSFTDYNMNWMKQSKGKSLEWIGVISPDYGTTTYNQNFKDKATLTVDQSSSTAYMQLNSLTSEDSAVYYCAKDMYYVYAYYTMDYWGHGTSVTVSS
VL: DVVMTQTPLSLPVSLGDQASISCRSSQSLVHSNGHTYLHWYLQRPGQSPTLLIYKVSNRFSGVPDRVSGSGSGTDFTLKISRVEAEDLGVYFCSQGTHVPRTFGGGTKLEIK
notes: as for B1
Consider B6, for which the MFI in assay [1] turned out to be 30; in assay [2], 29.5; in assay [3], 30.1; in assay [5], 30.7; in assay [6] it was 31. The molecule further yielded an OD450 nm in assay [4] of 0.0744.

B7: 37F11F9 (antibody, V domains shown)
VH: EVQLQQSGPVLVKPGASVKMSCKASGYTFTDYYMNWVKQSHGKSLEWIGLINPYSGGSTFNQKFKAKATLTVDKSSSSAYMDLNSLTSEDSAVYYCARVGDGYYGVTHGMDYWGQGTSVTVSS
VL: DIVMTPSQKFMSTTVGDRVSITCKASQNVGTAVAWYQQKPGQSPTILIYSASNRYTGVPDRFTGSGSGTDFTLTISNMKSEDLADYFCQQYYIYPFTFAAGTKLELK
notes: as for B1
For B7, the MFI was 31 in assay [1]; 30.9 in assay [2]; 29.7 in assay [3]; 30.6 in assay [5]; 30.1 in assay [6]. For the same molecule, the OD450 nm in assay [4] came out at 0.0638.
